This passage reports fold reduction of binding relative to WT shCD131 and Kd results from patent US20190062438A1 (CSL, published 2019).

Positions count from the first letter of the chain named.

Test [1] concerns the target shCD131 alanine mutants of Ser102, Val104 and Arg364. In words: SPR, Fab over captured mutant. (In general: Surface plasmon resonance follows binding to a sensor surface in real time, without labels.)
For the next test, the target named is T1, shCD131 V104A (human, UniProt P32927 17-438).
T1 construct: C-terminal 6xHis
T1 sequence: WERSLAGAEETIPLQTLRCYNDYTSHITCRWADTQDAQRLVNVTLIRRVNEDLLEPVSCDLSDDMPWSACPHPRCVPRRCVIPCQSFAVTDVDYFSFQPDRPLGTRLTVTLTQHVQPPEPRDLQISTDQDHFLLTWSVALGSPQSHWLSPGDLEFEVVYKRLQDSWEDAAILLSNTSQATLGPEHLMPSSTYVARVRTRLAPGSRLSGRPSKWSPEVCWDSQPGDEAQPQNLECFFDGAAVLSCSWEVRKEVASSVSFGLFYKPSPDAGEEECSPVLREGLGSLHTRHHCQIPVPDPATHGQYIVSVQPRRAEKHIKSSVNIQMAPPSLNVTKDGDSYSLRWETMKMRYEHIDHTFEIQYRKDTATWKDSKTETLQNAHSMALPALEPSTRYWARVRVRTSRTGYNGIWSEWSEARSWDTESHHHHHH
In words: SPR, kinetics, Fab over captured mutant.

The target in a further test is T2, shCD131 D369A (human, UniProt P32927 17-438).
T2 construct: C-terminal 6xHis
T2 sequence: T1 sequence with A88V, D353A
Nature of the test: SPR, kinetics, Fab over captured mutant.

A further test deals with T3, shCD131 Y421A (human, UniProt P32927 17-438).
T3 construct: C-terminal 6xHis
T3 sequence: T1 sequence with A88V, Y405A
Nature of the test: SPR, kinetics, Fab over captured mutant.

B1: 9A2 Fab (Fab, V domains shown)
VH: EVQLLESGGGLVQPGGSLRLSCAASGFTFSHYHMLWVRQAPGKGLEWVSSIRSSGGFTYYADSVKGRFTISRDNSKNTLYLQMNSLRAEDTAVYYCARFYDSFFDIWGQGTMVTVSS
VL: DIQMTQSPSSVSASVGDRVTITCRASQGISSWLAWYQQKPGKAPKLLIYAASSLQSGVPSRFSGSGSGTDFTLTISSLQPEDFATYYCQQANSFPITFGQGTRLEIKR
notes: also called recombinant Fab of 9A2
A word on the Kd: it is the constant that tells how readily two partners part at equilibrium. Low readings indicate a tighter complex, high ones a looser complex. In test [1], B1 gave a fold reduction of binding relative to WT shCD131 of 3 to 7 fold. In addition, the dissociation constant (Kd) in the test with shCD131 V104A came to 117 nM; in the test with shCD131 D369A, 28 nM; with shCD131 Y421A it was 167 nM.
